Target: EDB (+)-fibronectin in murine tumor sections (Mus musculus, UniProt P11276)
Test: immunostaining of cells or tissue

Chain of EDB (+)-fibronectin in murine tumor sections (P11276 33-2477): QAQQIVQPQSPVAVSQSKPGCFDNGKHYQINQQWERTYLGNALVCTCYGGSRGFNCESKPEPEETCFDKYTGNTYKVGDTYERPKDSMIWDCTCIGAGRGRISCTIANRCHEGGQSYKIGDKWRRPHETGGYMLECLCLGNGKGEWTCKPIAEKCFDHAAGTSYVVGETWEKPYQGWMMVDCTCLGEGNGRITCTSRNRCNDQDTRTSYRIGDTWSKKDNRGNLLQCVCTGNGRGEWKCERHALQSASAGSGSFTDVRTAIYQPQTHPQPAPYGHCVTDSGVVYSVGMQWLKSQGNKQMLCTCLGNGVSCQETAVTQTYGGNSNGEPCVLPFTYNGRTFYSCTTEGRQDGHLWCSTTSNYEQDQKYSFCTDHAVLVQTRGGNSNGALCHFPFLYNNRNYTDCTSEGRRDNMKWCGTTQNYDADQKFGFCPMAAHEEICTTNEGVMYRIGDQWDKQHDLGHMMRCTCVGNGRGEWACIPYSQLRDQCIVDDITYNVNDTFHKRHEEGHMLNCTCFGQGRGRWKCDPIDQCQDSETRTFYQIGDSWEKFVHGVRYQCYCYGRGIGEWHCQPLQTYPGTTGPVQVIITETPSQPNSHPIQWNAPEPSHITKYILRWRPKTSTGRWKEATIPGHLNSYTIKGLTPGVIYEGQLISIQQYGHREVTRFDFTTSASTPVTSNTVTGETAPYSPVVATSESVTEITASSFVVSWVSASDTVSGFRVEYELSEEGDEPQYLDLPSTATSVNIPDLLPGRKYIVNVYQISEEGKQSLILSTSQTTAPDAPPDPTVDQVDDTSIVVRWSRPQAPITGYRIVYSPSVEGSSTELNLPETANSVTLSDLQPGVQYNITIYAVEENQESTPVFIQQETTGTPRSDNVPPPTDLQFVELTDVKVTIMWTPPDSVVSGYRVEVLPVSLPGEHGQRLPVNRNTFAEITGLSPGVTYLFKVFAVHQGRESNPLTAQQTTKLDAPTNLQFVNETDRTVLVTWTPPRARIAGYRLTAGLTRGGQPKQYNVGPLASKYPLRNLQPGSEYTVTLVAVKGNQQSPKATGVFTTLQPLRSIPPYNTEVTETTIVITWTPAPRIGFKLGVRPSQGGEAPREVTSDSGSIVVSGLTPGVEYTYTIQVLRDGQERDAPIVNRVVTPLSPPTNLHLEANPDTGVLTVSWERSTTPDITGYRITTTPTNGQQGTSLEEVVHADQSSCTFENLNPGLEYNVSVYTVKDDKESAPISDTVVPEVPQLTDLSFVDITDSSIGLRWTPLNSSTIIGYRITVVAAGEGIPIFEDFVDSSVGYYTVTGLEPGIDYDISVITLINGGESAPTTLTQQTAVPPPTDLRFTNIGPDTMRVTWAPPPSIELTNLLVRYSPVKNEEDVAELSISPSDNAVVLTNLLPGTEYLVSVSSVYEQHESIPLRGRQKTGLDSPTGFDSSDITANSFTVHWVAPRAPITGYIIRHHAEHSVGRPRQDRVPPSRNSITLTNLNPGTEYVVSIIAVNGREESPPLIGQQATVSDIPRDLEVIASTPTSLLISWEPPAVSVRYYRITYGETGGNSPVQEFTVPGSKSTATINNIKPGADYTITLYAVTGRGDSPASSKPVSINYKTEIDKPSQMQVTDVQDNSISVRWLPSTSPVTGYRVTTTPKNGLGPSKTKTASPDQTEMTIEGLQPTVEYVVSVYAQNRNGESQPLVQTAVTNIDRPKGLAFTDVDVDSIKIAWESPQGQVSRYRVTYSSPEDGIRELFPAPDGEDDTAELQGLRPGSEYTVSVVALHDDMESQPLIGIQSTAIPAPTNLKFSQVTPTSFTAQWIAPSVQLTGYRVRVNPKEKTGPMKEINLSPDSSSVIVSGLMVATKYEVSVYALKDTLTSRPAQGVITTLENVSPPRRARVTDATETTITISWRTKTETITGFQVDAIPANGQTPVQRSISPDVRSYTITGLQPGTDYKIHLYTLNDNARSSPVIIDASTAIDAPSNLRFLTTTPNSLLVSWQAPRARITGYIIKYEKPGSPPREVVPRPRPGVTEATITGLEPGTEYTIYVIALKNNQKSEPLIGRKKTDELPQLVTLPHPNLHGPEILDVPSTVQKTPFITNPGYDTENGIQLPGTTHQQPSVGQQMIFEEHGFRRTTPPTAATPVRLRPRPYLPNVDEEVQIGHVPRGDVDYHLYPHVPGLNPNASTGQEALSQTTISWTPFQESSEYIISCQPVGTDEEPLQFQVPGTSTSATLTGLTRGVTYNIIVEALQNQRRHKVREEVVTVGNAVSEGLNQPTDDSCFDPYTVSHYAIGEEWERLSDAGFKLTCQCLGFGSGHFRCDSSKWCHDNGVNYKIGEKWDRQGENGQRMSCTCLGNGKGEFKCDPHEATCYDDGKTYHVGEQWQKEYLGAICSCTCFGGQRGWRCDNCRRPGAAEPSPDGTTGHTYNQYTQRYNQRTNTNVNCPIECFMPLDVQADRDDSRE

B1: FITC-labeled L19 IgG1 (antibody, V domains shown)
VH: EVQLLESGGGLVQPGGSLRLSCAASGFTFSSFSMSWVRQAPGKGLEWVSSISGSSGTTYYADSVKGRFTISRDNSKNTLYLQMNSLRAEDTAVYYCAKPFPYFDYWGQGTLVTVSS
VL: EIVLTQSPGTLSLSPGERATLSCRASQSVSSSFLAWYQQKPGQAPRLLIYYASSRATGIPDRFSGSGSGTDFTLTISRLEPEDFAVYYCQQTGRIPPTFGQGTKVEIK
binding result: binds
